Where “and” joins values, the source holds several entries; their conditions need not be identical. Equal entries are not always repeated.
How the values were obtained:
PLY Peptide 10146 [1] = test: peptide ELISA, plate 1
Peptide GNT-01 [2] = test: peptide ELISA, plate 1
Peptide GNT-02 [3] = test: peptide ELISA, plate 1
Peptide GNT-08 [4] = test: peptide ELISA, plate 1
Peptide GNT-13 [5] = test: peptide ELISA, plate 1
Peptide GNT-14 [6] = test: peptide ELISA, plate 1
PsaA Peptide 9144 [7] = test: peptide ELISA, plate 1
PLY Peptide 10146 [8] = test: peptide ELISA, plate 2
Peptide GNT-01 [9] = test: peptide ELISA, plate 2
Peptide GNT-04 [10] = test: peptide ELISA, plate 2
Peptide GNT-05 [11] = test: peptide ELISA, plate 2
Peptide GNT-06 [12] = test: peptide ELISA, plate 2
Peptide GNT-061 [13] = test: peptide ELISA, plate 2
Peptide GNT-062 [14] = test: peptide ELISA, plate 2
Peptide GNT-07 [15] = test: peptide ELISA, plate 2
Peptide GNT-08 [16] = test: peptide ELISA, plate 2
Peptide GNT-09 [17] = test: peptide ELISA, plate 2
Peptide GNT-10 [18] = test: peptide ELISA, plate 2
Peptide GNT-13 [19] = test: peptide ELISA, plate 2
Peptide GNT-14 [20] = test: peptide ELISA, plate 2
PsaA Peptide 9144 [21] = test: peptide ELISA, plate 2
PLY Peptide 10146 [22] = test: peptide ELISA, plate 1 overview
Peptide GNT-01 [23] = test: peptide ELISA, plate 1 overview
Peptide GNT-02 [24] = test: peptide ELISA, plate 1 overview
Peptide GNT-07 [25] = test: peptide ELISA, plate 1 overview
Peptide GNT-08 [26] = test: peptide ELISA, plate 1 overview
Peptide GNT-13 [27] = test: peptide ELISA, plate 1 overview
Peptide GNT-14 [28] = test: peptide ELISA, plate 1 overview
PsaA Peptide 9144 [29] = test: peptide ELISA, plate 1 overview
PLY Peptide 10146 [30] = test: peptide ELISA, plate 2 overview
Peptide GNT-01 [31] = test: peptide ELISA, plate 2 overview
Peptide GNT-02 [32] = test: peptide ELISA, plate 2 overview
Peptide GNT-04 [33] = test: peptide ELISA, plate 2 overview
Peptide GNT-05 [34] = test: peptide ELISA, plate 2 overview
Peptide GNT-06 [35] = test: peptide ELISA, plate 2 overview
Peptide GNT-061 [36] = test: peptide ELISA, plate 2 overview
Peptide GNT-062 [37] = test: peptide ELISA, plate 2 overview
Peptide GNT-07 [38] = test: peptide ELISA, plate 2 overview
Peptide GNT-08 [39] = test: peptide ELISA, plate 2 overview
Peptide GNT-09 [40] = test: peptide ELISA, plate 2 overview
Peptide GNT-10 [41] = test: peptide ELISA, plate 2 overview
Peptide GNT-13 [42] = test: peptide ELISA, plate 2 overview
Peptide GNT-14 [43] = test: peptide ELISA, plate 2 overview
PsaA Peptide 9144 [44] = test: peptide ELISA, plate 2 overview

B1: 22-1C11.1 (antibody, V domains shown)
VH: VKLQESGGGVVQPGRSLRLSCAASGFTFSNYGMHWVRQAPGKGLEWVAVIWYDGSNKYYADFVKGRFTISRDNSKNTLYLQMNSLRAEDTAVYYCARRGNYYGLGSFYYYGMDVWGQGTTVTVSS
VL: DIQMTQSPATLSLSPGERATLSCRASQSVSSYLAWYQQKPGQAPRLLIYDASNRATGIPARFSGSGSGTDFTLTISSLEPEDFAVYYCQQCSNWHPTFGQGTKLEIKR
Elisa reading (PLY Peptide 10146 [1]): 1.09 and 1.71 and 2.24 | Elisa reading (Peptide GNT-01 [2]): 0.72 and 1.16 and 1.7 | Elisa reading (Peptide GNT-02 [3]): 2.05 and 2.51 and 3 | Elisa reading (Peptide GNT-08 [4]): 0.71 and 0.91 and 1.52 | Elisa reading (Peptide GNT-13 [5]): 0.11 and 0.12 and 0.25 | Elisa reading (Peptide GNT-14 [6]): 0.1 and 0.22 | Elisa reading (PsaA Peptide 9144 [7]): 0.16 and 0.1 and 0.19 | Elisa reading (PLY Peptide 10146 [8]): 1.58 | Elisa reading (Peptide GNT-01 [9]): 1.27 | Elisa reading (Peptide GNT-04 [10]): 0.748 | Elisa reading (Peptide GNT-05 [11]): 0.816 | Elisa reading (Peptide GNT-06 [12]): 0.56 | Elisa reading (Peptide GNT-061 [13]): 0.61 | Elisa reading (Peptide GNT-062 [14]): 0.844 | Elisa reading (Peptide GNT-07 [15]): 0.681 | Elisa reading (Peptide GNT-08 [16]): 0.73 | Elisa reading (Peptide GNT-09 [17]): 0.475 | Elisa reading (Peptide GNT-10 [18]): 0.403 | Elisa reading (Peptide GNT-13 [19]): 0.264 | Elisa reading (Peptide GNT-14 [20]): 0.257 | Elisa reading (PsaA Peptide 9144 [21]): 0.539 | Elisa reading (PLY Peptide 10146 [22]): 1.09 | Elisa reading (Peptide GNT-01 [23]): 0.72 | Elisa reading (Peptide GNT-02 [24]): 2.05 | Elisa reading (Peptide GNT-07 [25]): 0.24 | Elisa reading (Peptide GNT-08 [26]): 0.71 | Elisa reading (Peptide GNT-13 [27]): 0.11 | Elisa reading (Peptide GNT-14 [28]): 0.1 | Elisa reading (PsaA Peptide 9144 [29]): 0.16 | Elisa reading (PLY Peptide 10146 [30]): 1.58 | Elisa reading (Peptide GNT-01 [31]): 1.27 | Elisa reading (Peptide GNT-02 [32]): > 3 | Elisa reading (Peptide GNT-04 [33]): 0.75 | Elisa reading (Peptide GNT-05 [34]): 0.82 | Elisa reading (Peptide GNT-06 [35]): 0.56 | Elisa reading (Peptide GNT-061 [36]): 0.61 | Elisa reading (Peptide GNT-062 [37]): 0.84 | Elisa reading (Peptide GNT-07 [38]): 0.68 | Elisa reading (Peptide GNT-08 [39]): 0.73 | Elisa reading (Peptide GNT-09 [40]): 0.48 | Elisa reading (Peptide GNT-10 [41]): 0.4 | Elisa reading (Peptide GNT-13 [42]): 0.26 | Elisa reading (Peptide GNT-14 [43]): 0.26 | Elisa reading (PsaA Peptide 9144 [44]): 0.54

Source: US20090214547A1
